The values below come from article doi:10.1101/2025.02.06.636808, “DNA Binding by the Escherichia coli MinC–MinD Complex Requires the MinC Interdomain Linker” (bioRxiv, 2025).

Experiment [1] deals with T1, MinD (E. coli) (E. coli, UniProt P0AEZ3 1-270).
T1 construct: source: E. coli Rosetta(DE3)pLysS, purified (nickel IMAC, desalting); His tag removed with thrombin; not shown: T7 tag, N-terminal, kept
T1 sequence (looked up): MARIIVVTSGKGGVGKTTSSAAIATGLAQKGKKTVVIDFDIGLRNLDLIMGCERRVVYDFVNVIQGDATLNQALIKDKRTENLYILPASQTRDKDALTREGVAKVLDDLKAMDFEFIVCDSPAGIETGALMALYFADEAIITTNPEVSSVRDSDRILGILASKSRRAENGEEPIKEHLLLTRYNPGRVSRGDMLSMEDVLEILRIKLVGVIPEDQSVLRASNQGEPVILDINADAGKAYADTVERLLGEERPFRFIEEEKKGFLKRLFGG
As to the kind of experiment: co-sedimentation; liposome co-sedimentation without DNA, competition: MinD 1 uM, MinC 1 uM, increasing MinE, 160 ug/mL liposomes, 1 mM ATP, ATPase buffer; SDS-PAGE, Coomassie. The note with it: both partners purified.

For experiment [2], the target named is T1, MinD (E. coli). As to the kind of experiment: co-sedimentation; liposome co-sedimentation without DNA: MinD 2 uM, MinC 2 uM, 0.5 mg/mL liposomes, 1 mM ATP, ATPase buffer (25 mM Tris-HCl pH 7.5, 50 mM KCl, 5 mM MgCl2, 5% glycerol); SDS-PAGE, Coomassie. To be noted: both partners purified.

B1: MinC-2xAGGSG linker mutant (natural protein, E. coli)
chain: MSNTPIELKGSSFTLSVVHLHEAEPKVIHQALEDKIAQAPAFLKHAPVVLNVSALEDPVNWSAMHKAVSATGLRVIGVSGCKDAQLKAEIEKMGLPILTEGAGGSGAGGSGPVTKTRLIDTPVRSGQRIYAPQCDLIVTSHVSAGAELIADGNIHVYGMMRGRALAGASGDRETQIFCTNLMAELVSIAGEYWLSDQIPAEFYGKAARLQLVENALTVQPLN
notes: MinC, E. coli MG1655, N-terminal part before the linker, residues 1-101; linker that replaces residues 102-120 of MinC: AGGSG repeated twice; MinC, E. coli MG1655, C-terminal part after the linker, residues 121-231; source: E. coli Rosetta(DE3)pLysS, purified (nickel IMAC, desalting); His tag removed with thrombin; not shown: T7 tag, N-terminal, kept
As to B1, the binding result with MinD (E. coli) [1] is recorded as “binds”.

B2: MinC19RL linker mutant (natural protein, E. coli)
chain: MSNTPIELKGSSFTLSVVHLHEAEPKVIHQALEDKIAQAPAFLKHAPVVLNVSALEDPVNWSAMHKAVSATGLRVIGVSGCKDAQLKAEIEKMGLPILTEGAGGSGAGGSGAGGSGAGGSPVTKTRLIDTPVRSGQRIYAPQCDLIVTSHVSAGAELIADGNIHVYGMMRGRALAGASGDRETQIFCTNLMAELVSIAGEYWLSDQIPAEFYGKAARLQLVENALTVQPLN
notes: MinC, E. coli MG1655, N-terminal part before the linker, residues 1-101; linker that replaces residues 102-120 of MinC: as the 4x linker but without the last glycine, 19 residues; MinC, E. coli MG1655, C-terminal part after the linker, residues 121-231; source: E. coli Rosetta(DE3)pLysS, purified (nickel IMAC, desalting); His tag removed with thrombin; not shown: T7 tag, N-terminal, kept
Consider B2, for which the binding result in the experiment with MinD (E. coli) [2] is listed as “binds”.

B3: MinC-GS linker mutant (natural protein, E. coli)
chain: MSNTPIELKGSSFTLSVVHLHEAEPKVIHQALEDKIAQAPAFLKHAPVVLNVSALEDPVNWSAMHKAVSATGLRVIGVSGCKDAQLKAEIEKMGLPILTEGGSPVTKTRLIDTPVRSGQRIYAPQCDLIVTSHVSAGAELIADGNIHVYGMMRGRALAGASGDRETQIFCTNLMAELVSIAGEYWLSDQIPAEFYGKAARLQLVENALTVQPLN
notes: MinC, E. coli MG1655, N-terminal part before the linker, residues 1-101; linker that replaces residues 102-120 of MinC; MinC, E. coli MG1655, C-terminal part after the linker, residues 121-231; Made from pET28a-MinC by amplifying the whole plasmid except residues 102-120; source: E. coli Rosetta(DE3)pLysS, purified (nickel IMAC, desalting); His tag removed with thrombin; not shown: T7 tag, …
Take B3: in the experiment with MinD (E. coli) [2], the binding result is recorded as “binds”.

B4: MinC-3xAGGSG linker mutant (natural protein, E. coli)
chain: MSNTPIELKGSSFTLSVVHLHEAEPKVIHQALEDKIAQAPAFLKHAPVVLNVSALEDPVNWSAMHKAVSATGLRVIGVSGCKDAQLKAEIEKMGLPILTEGAGGSGAGGSGAGGSGPVTKTRLIDTPVRSGQRIYAPQCDLIVTSHVSAGAELIADGNIHVYGMMRGRALAGASGDRETQIFCTNLMAELVSIAGEYWLSDQIPAEFYGKAARLQLVENALTVQPLN
notes: MinC, E. coli MG1655, N-terminal part before the linker, residues 1-101; linker that replaces residues 102-120 of MinC: AGGSG repeated three times; MinC, E. coli MG1655, C-terminal part after the linker, residues 121-231; source: E. coli Rosetta(DE3)pLysS, purified (nickel IMAC, desalting); His tag removed with thrombin; not shown: T7 tag, N-terminal, kept
On to B4, for which, in the experiment with MinD (E. coli) [1], the binding result was “binds”.

B5: MinC-4xAGGSG linker mutant (natural protein, E. coli)
chain: MSNTPIELKGSSFTLSVVHLHEAEPKVIHQALEDKIAQAPAFLKHAPVVLNVSALEDPVNWSAMHKAVSATGLRVIGVSGCKDAQLKAEIEKMGLPILTEGAGGSGAGGSGAGGSGAGGSGPVTKTRLIDTPVRSGQRIYAPQCDLIVTSHVSAGAELIADGNIHVYGMMRGRALAGASGDRETQIFCTNLMAELVSIAGEYWLSDQIPAEFYGKAARLQLVENALTVQPLN
notes: MinC, E. coli MG1655, N-terminal part before the linker, residues 1-101; linker that replaces residues 102-120 of MinC: AGGSG repeated four times; MinC, E. coli MG1655, C-terminal part after the linker, residues 121-231; source: E. coli Rosetta(DE3)pLysS, purified (nickel IMAC, desalting); His tag removed with thrombin; not shown: T7 tag, N-terminal, kept
B5: the binding result in the experiment with MinD (E. coli) [1] is on record as “binds”.

B6: MinC-1xAGGSG linker mutant (natural protein, E. coli)
chain: MSNTPIELKGSSFTLSVVHLHEAEPKVIHQALEDKIAQAPAFLKHAPVVLNVSALEDPVNWSAMHKAVSATGLRVIGVSGCKDAQLKAEIEKMGLPILTEGAGGSGPVTKTRLIDTPVRSGQRIYAPQCDLIVTSHVSAGAELIADGNIHVYGMMRGRALAGASGDRETQIFCTNLMAELVSIAGEYWLSDQIPAEFYGKAARLQLVENALTVQPLN
notes: MinC, E. coli MG1655, N-terminal part before the linker, residues 1-101; linker that replaces residues 102-120 of MinC; MinC, E. coli MG1655, C-terminal part after the linker, residues 121-231; source: E. coli Rosetta(DE3)pLysS, purified (nickel IMAC, desalting); His tag removed with thrombin; not shown: T7 tag, N-terminal, kept
Regarding B6, in the experiment with MinD (E. coli) [1], the binding result was “binds”.

B7: MinE (E. coli) (natural protein, UniProt P0A734 1-88, looked up)
chain: MALLDFFLSRKKNTANIAKERLQIIVAERRRSDAEPHYLPQLRKDILEVICKYVQIDPEMVTVQLEQKDGDISILELNVTLPEAEELK
notes: a T7 tag from pET28a may be left; source: E. coli Rosetta(DE3)pLysS, purified (nickel IMAC, desalting)
Take B7: in the experiment with MinD (E. coli) [1], the binding result is recorded as “binds”.
